Test results: publication PMC10786891, “Massively parallel profiling of RNA-targeting CRISPR-Cas13d”
Numbering of substitutions follows the chain as printed. Names and notes keep the numbering of the source.

T1: EsCas13d, nuclease-dead (Eubacterium siraeum, UniProt B0MS50, R295A;H300A;R849A;H854A)
T1 sequence: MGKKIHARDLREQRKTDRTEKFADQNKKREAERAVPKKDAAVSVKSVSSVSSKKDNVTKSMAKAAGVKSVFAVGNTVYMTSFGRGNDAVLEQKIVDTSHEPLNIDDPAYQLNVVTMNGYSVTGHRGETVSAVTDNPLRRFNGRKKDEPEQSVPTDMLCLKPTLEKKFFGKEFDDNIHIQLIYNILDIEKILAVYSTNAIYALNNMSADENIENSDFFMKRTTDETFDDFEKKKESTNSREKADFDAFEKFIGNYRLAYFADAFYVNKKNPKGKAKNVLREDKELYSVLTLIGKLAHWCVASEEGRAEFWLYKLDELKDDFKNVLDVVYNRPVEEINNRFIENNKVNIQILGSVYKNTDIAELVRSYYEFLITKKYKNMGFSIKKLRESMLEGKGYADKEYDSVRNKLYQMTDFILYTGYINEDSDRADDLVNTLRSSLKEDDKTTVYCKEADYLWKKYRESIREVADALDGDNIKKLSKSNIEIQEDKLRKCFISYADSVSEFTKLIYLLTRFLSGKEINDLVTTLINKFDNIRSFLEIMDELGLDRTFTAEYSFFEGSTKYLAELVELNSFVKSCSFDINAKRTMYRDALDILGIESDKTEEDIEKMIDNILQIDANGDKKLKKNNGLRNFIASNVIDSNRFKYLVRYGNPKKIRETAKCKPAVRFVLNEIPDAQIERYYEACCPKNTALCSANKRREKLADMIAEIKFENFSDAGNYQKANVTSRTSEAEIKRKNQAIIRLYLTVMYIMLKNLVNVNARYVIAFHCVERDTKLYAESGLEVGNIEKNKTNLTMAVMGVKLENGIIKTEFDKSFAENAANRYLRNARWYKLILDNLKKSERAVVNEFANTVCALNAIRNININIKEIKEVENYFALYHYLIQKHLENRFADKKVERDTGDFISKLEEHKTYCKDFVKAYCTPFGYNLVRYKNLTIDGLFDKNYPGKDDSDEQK

B1: target 1 insA 3' of 10,insA 3' of 6 (mixed)
RNA 1: CACCCGUGCAAAAAUGCAGGGGUCUAAAACUGAGCGGAUAACCUCUCUAUGG
RNA 2: GGGAAUGGAUCCACAUCUACGAAUUCGUACCAUAGAGAGGUUAAUCCAGCUCACCGAGAUCGGAAGAGCACACGU
B2: target 1 A1U,C4U (mixed)
RNA 1: B1 RNA 1
RNA 2: GGGAAUGGAUCCACAUCUACGAAUUCGUACCAUAGAGAGGUUAUCCGUUCUCCGAGAUCGGAAGAGCACACGU
B3: target 1 U10G,U11G (mixed)
RNA 1: B1 RNA 1
RNA 2: B2 RNA 2 with U41G, U42G, U48C, U51A
B4: target 1 A1U,C6G (mixed)
RNA 1: B1 RNA 1
RNA 2: B2 RNA 2 with C46G, U48C
B5: target 3 insU 3' of 9,insC 3' of 8 (mixed)
RNA 1: CACCCGUGCAAAAUUGCAGGGGUCUAAAACGACCUGAAUAUUUCAGAUCAAA
RNA 2: GGGAAUGGAUCCACAUCUACGAAUUCGUUUUUGAUCUGAAAUAUUCUCAGGUCUGCAGAUCGGAAGAGCACACGU
B6: target 3 insU 3' of 16,insU 3' of 3 (mixed)
RNA 1: B5 RNA 1
RNA 2: GGGAAUGGAUCCACAUCUACGAAUUCGUUUUUGAUCUUGAAAUAUUCAGGUUCUGCAGAUCGGAAGAGCACACGU
B7: target 3 G4A,U8G (mixed)
RNA 1: B5 RNA 1
RNA 2: GGGAAUGGAUCCACAUCUACGAAUUCGUUUUUGAUCUGAAAUAGUCAAGUCUGCAGAUCGGAAGAGCACACGU
B8: target 3 U8C,A9G (mixed)
RNA 1: B5 RNA 1
RNA 2: B7 RNA 2 with A43G, G44C, A48G
B9: target 3 insA 3' of 3,insG 3' of 2 (mixed)
RNA 1: B5 RNA 1
RNA 2: B5 RNA 2 with U47A, C48G, A49G, G50A, G51U, U52G
B10: target 3 insC 3' of 18,insA 3' of 17 (mixed)
RNA 1: B5 RNA 1
RNA 2: B5 RNA 2 with U35C, C36U, U37A, G38C, A39U, A40G, U42A, U45A, C46U
B11: target 3 A5U,C6U (mixed)
RNA 1: B5 RNA 1
RNA 2: B7 RNA 2 with G44U, C46U, A47U, A48G
B12: target 3 del4,del5 (mixed)
RNA 1: B5 RNA 1
RNA 2: GGGAAUGGAUCCACAUCUACGAAUUCGUUUUUGAUCUGAAAUAUUCGUCUGCAGAUCGGAAGAGCACACGU
B13: target 3 insA 3' of 2 (mixed)
RNA 1: B5 RNA 1
RNA 2: GGGAAUGGAUCCACAUCUACGAAUUCGUUUUUGAUCUGAAAUAUUCAGGUACUGCAGAUCGGAAGAGCACACGU
B14: target 3 C1G,A12G (mixed)
RNA 1: B5 RNA 1
RNA 2: B7 RNA 2 with A40G, G44U, A48G, C51G
B15: target 3 del6,del9 (mixed)
RNA 1: B5 RNA 1
RNA 2: B12 RNA 2 with A43U, U45A, C46G
B16: target 3 insC 3' of 22,insU 3' of 6 (mixed)
RNA 1: B5 RNA 1
RNA 2: B6 RNA 2 with U31C, G33U, A34G, U35A, C36U, U37C, A48U, G49A, U51G
B17: target 3 insC 3' of 4,insG 3' of 2 (mixed)
RNA 1: B5 RNA 1
RNA 2: B5 RNA 2 with U47A, C48G, A49C, G51U, U52G
B18: target 3 insU 3' of 16,insU 3' of 1 (mixed)
RNA 1: B5 RNA 1
RNA 2: B6 RNA 2 with U52C, C53U
B19: target 3 insU 3' of 13,insA 3' of 2 (mixed)
RNA 1: B5 RNA 1
RNA 2: B6 RNA 2 with U38G, G39A, A40U, U52A
B20: target 3 insA 3' of 8,insC 3' of 8 (mixed)
RNA 1: B5 RNA 1
RNA 2: B5 RNA 2 with U45A
B21: target 3 insC 3' of 22,insA 3' of 21 (mixed)
RNA 1: B5 RNA 1
RNA 2: GGGAAUGGAUCCACAUCUACGAAUUCGUUUCUAUGAUCUGAAAUAUUCAGGUCUGCAGAUCGGAAGAGCACACGU
B22: target 3 C1U,A12C (mixed)
RNA 1: B5 RNA 1
RNA 2: B7 RNA 2 with A40C, G44U, A48G, C51U
B23: target 3 G4A,A11G (mixed)
RNA 1: B5 RNA 1
RNA 2: B7 RNA 2 with A41G, G44U
B24: target 3 G4A,U8C (mixed)
RNA 1: B5 RNA 1
RNA 2: B7 RNA 2 with G44C
B25: target 3 U2A,U8C (mixed)
RNA 1: B5 RNA 1
RNA 2: B7 RNA 2 with G44C, A48G, U50A
B26: target 3 U2A,A18G (mixed)
RNA 1: B5 RNA 1
RNA 2: B7 RNA 2 with A34G, G44U, A48G, U50A
B27: target 3 insG 3' of 9,insC 3' of 8 (mixed)
RNA 1: B5 RNA 1
RNA 2: B5 RNA 2 with U44G

What follows are binders tested against T1, EsCas13d, nuclease-dead (assay: crRNA (strand 1, pre-loaded); Mg2+; 40 mM Tris-HCl pH 7.5, 150 mM NaCl, 6 mM MgCl2, 1 mM DTT, 0.1% Tween-20, 0.2 mg/ml BSA; 25 C; 10 min per concentration, then washed). Conditions: tags: His6-TwinStrep-SUMO cleaved; N-terminal SNAP kept (SNAP-Surface 488); label: 3' end held by stalled T7 RNA polymerase.

| Binder | Kd |
| --- | --- |
| B1 | 11.1 ± 0.7 nM |
| B2 | 13 ± 1.7 nM |
| B3 | 32.7 ± 2.9 nM |
| B4 | 12.1 ± 0.9 nM |
| B5 | 81.5 ± 13 nM |
| B6 | 29 ± 5 nM |
| B7 | 77.5 ± 21 nM |
| B8 | 77 ± 15.5 nM |
| B9 | 24.6 ± 3.4 nM |
| B10 | 34.5 ± 11 nM |
| B11 | 48 ± 6 nM |
| B12 | 24.6 ± 2.15 nM |
| B13 | 30.2 ± 2.55 nM |
| B14 | 50 ± 9 nM |
| B15 | 120 ± 24 nM |
| B16 | 29.6 ± 2.7 nM |
| B17 | 50.5 ± 9.5 nM |
| B18 | 39.5 ± 6.5 nM |
| B19 | 74 ± 17.5 nM |
| B20 | 63 ± 10 nM |
| B21 | 43 ± 5 nM |
| B22 | 86.5 ± 17 nM |
| B23 | 36 ± 5 nM |
| B24 | 52.8 ± 5.6 nM |
| B25 | 44.5 ± 6 nM |
| B26 | 55.5 ± 7.5 nM |
| B27 | 90 ± 16.5 nM |
